test system: Escherichia coli TOP10; assay: shrunken log2 fold change of peptide-encoding DNA abundance (4.5 h post-induction vs induction); higher = less antimicrobial activity (less host growth inhibition); conditions: time post-induction: 4.5 h; library: site-saturation at positions 5, 18, 19, 20
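Also: peptides expressed intracellularly from a pBAD plasmid library in pooled LB shake-flask culture, induced with 0.3% L-arabinose, DNA abundance read by NGS, three biological replicates, DESeq2 with apeglm shrinkage.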

Sequence	shrunken log2 fold change
RRIRRRPPRLPRPRPRPVRRPRP	0.619
RRIRQRPPRLPRPRPRPNNKPRP	-0.721
RRIRVRPPRLPRPRPRPDNRPRP	-0.00604
RRIRTRPPRLPRPRPRPFENPRP	-0.0132
RRIRQRPPRLPRPRPRPRVPPRP	0.339
RRIRDRPPRLPRPRPRPPLTPRP	0.307
RRIRNRPPRLPRPRPRPVDAPRP	0.154
RRIRQRPPRLPRPRPRPSKEPRP	-0.371
RRIRLRPPRLPRPRPRPHESPRP	-0.0598
RRIRGRPPRLPRPRPRPTRYPRP	0.357
RRIRERPPRLPRPRPRPCIIPRP	-0.449
RRIRSRPPRLPRPRPRPFRDPRP	-0.123
RRIRKRPPRLPRPRPRPCMTPRP	0.0372
RRIRSRPPRLPRPRPRPKCSPRP	-0.122
RRIRYRPPRLPRPRPRPVSRPRP	-0.0816
RRIRGRPPRLPRPRPRPIPKPRP	-0.117
RRIRGRPPRLPRPRPRPMNDPRP	0.337
RRIRERPPRLPRPRPRPAMQPRP	0.0339
RRIRQRPPRLPRPRPRPAGIPRP	0.0977
RRIRIRPPRLPRPRPRPKCLPRP	-0.0748
RRIRPRPPRLPRPRPRPYTMPRP	0.0535
RRIRKRPPRLPRPRPRPCELPRP	-0.00602
RRIRGRPPRLPRPRPRPEPSPRP	1.47
RRIRERPPRLPRPRPRPPTRPRP	0.254
RRIRCRPPRLPRPRPRPILSPRP	-0.362

Sequence	shrunken log2 fold change
RRIRQRPPRLPRPRPRPYWSPRP	-0.117
RRIRDRPPRLPRPRPRPEFTPRP	0.174
RRIRVRPPRLPRPRPRPMAYPRP	-0.012
RRIRMRPPRLPRPRPRPIGTPRP	0.403
RRIRGRPPRLPRPRPRPYCEPRP	0.22
RRIRCRPPRLPRPRPRPNRPPRP	-0.0846
RRIRERPPRLPRPRPRPNAHPRP	0.0249
RRIRERPPRLPRPRPRPEQTPRP	0.111
RRIRMRPPRLPRPRPRPPINPRP	-0.195
RRIRFRPPRLPRPRPRPFINPRP	-0.874
RRIRVRPPRLPRPRPRPFAGPRP	0.03
RRIRTRPPRLPRPRPRPANCPRP	-0.0321
RRIRLRPPRLPRPRPRPGGVPRP	0.0323
RRIRVRPPRLPRPRPRPWSLPRP	-0.0384
RRIRGRPPRLPRPRPRPCWRPRP	0.248
RRIRVRPPRLPRPRPRPMSKPRP	-0.0756
RRIRPRPPRLPRPRPRPGQSPRP	0.421
RRIRIRPPRLPRPRPRPHYFPRP	-0.173
RRIRQRPPRLPRPRPRPTKDPRP	-0.198
RRIRMRPPRLPRPRPRPSHHPRP	-0.171
RRIRQRPPRLPRPRPRPRGCPRP	0.199
RRIRWRPPRLPRPRPRPGRGPRP	0.643
RRIRQRPPRLPRPRPRPPADPRP	0.362
RRIRIRPPRLPRPRPRPWSTPRP	-0.358
RRIRYRPPRLPRPRPRPVNYPRP	-0.458

Sequence	shrunken log2 fold change
RRIRNRPPRLPRPRPRPAMLPRP	-0.145
RRIRERPPRLPRPRPRPKNNPRP	-0.464
RRIRIRPPRLPRPRPRPKNFPRP	-0.0927
RRIRIRPPRLPRPRPRPVSYPRP	-0.599
RRIRVRPPRLPRPRPRPMECPRP	-0.00192
RRIRHRPPRLPRPRPRPMMPPRP	-0.365
RRIRNRPPRLPRPRPRPDDPPRP	-0.0062
RRIRMRPPRLPRPRPRPMHNPRP	0.0989
RRIRNRPPRLPRPRPRPLDKPRP	-0.186
RRIRRRPPRLPRPRPRPIHDPRP	0.169
RRIRSRPPRLPRPRPRPNRHPRP	-0.219
RRIRARPPRLPRPRPRPCPFPRP	-0.154
RRIRLRPPRLPRPRPRPQHIPRP	-0.812
RRIRHRPPRLPRPRPRPVWQPRP	0.0177
RRIRKRPPRLPRPRPRPQASPRP	0.353
RRIRTRPPRLPRPRPRPNKCPRP	-0.314
RRIRTRPPRLPRPRPRPMKAPRP	0.0679
RRIRNRPPRLPRPRPRPLKDPRP	-0.0618
RRIRHRPPRLPRPRPRPCHLPRP	-0.113
RRIRSRPPRLPRPRPRPWRTPRP	0.311
RRIRMRPPRLPRPRPRPWGPPRP	0.106
RRIRQRPPRLPRPRPRPTEKPRP	-0.047
RRIRARPPRLPRPRPRPVFRPRP	0.143
RRIRRRPPRLPRPRPRPYLYPRP	-0.362
RRIRSRPPRLPRPRPRPSVTPRP	-0.171

Sequence	shrunken log2 fold change
RRIRYRPPRLPRPRPRPIVLPRP	-0.213
RRIRYRPPRLPRPRPRPELMPRP	-0.128
RRIRPRPPRLPRPRPRPTGRPRP	0.459
RRIRKRPPRLPRPRPRPTWIPRP	0.00938
RRIRRRPPRLPRPRPRPMVMPRP	0.158
RRIRPRPPRLPRPRPRPSWWPRP	0.394
RRIRPRPPRLPRPRPRPVQIPRP	-0.13
RRIRARPPRLPRPRPRPGKAPRP	0.266
RRIRIRPPRLPRPRPRPSYEPRP	-0.53
RRIRERPPRLPRPRPRPTTVPRP	-0.147
RRIRRRPPRLPRPRPRPAMWPRP	0.451
RRIRKRPPRLPRPRPRPINNPRP	-0.298
RRIRQRPPRLPRPRPRPADTPRP	-0.128
RRIRARPPRLPRPRPRPQHIPRP	-0.0675
RRIRIRPPRLPRPRPRPGTHPRP	-0.431
RRIRCRPPRLPRPRPRPTSMPRP	-0.308
RRIRCRPPRLPRPRPRPDKWPRP	0.184
RRIRNRPPRLPRPRPRPLDNPRP	-0.263
RRIRCRPPRLPRPRPRPVEFPRP	-0.05
RRIRGRPPRLPRPRPRPVCDPRP	0.959
RRIRFRPPRLPRPRPRPSWIPRP	-0.177
RRIRIRPPRLPRPRPRPNVYPRP	-0.228
RRIRCRPPRLPRPRPRPPETPRP	0.105
RRIRMRPPRLPRPRPRPRESPRP	0.09
RRIRKRPPRLPRPRPRPQELPRP	0.329

Sequence	shrunken log2 fold change
RRIRSRPPRLPRPRPRPAYGPRP	-0.122
RRIRGRPPRLPRPRPRPEAIPRP	1.82
RRIRLRPPRLPRPRPRPWRDPRP	-0.252
RRIRTRPPRLPRPRPRPSAPPRP	0.269
RRIRQRPPRLPRPRPRPAAEPRP	0.19
RRIRRRPPRLPRPRPRPPHTPRP	0.879
RRIRTRPPRLPRPRPRPTANPRP	0.0721
RRIRWRPPRLPRPRPRPVHIPRP	-0.091
RRIRKRPPRLPRPRPRPIVLPRP	-0.299
RRIRWRPPRLPRPRPRPLVRPRP	0.151
RRIRRRPPRLPRPRPRPMKRPRP	0.0474
RRIRTRPPRLPRPRPRPIGWPRP	0.6
RRIRSRPPRLPRPRPRPHDSPRP	0.0375
RRIRCRPPRLPRPRPRPGMGPRP	0.223
RRIRNRPPRLPRPRPRPGNMPRP	-1.16
RRIRKRPPRLPRPRPRPGMEPRP	0.0527
RRIRHRPPRLPRPRPRPEIMPRP	-0.023
RRIRHRPPRLPRPRPRPNWCPRP	-0.00989
RRIRIRPPRLPRPRPRPTTGPRP	-0.228
RRIRDRPPRLPRPRPRPNKAPRP	0.0205
RRIRARPPRLPRPRPRPCKCPRP	-0.0835
RRIRVRPPRLPRPRPRPLVSPRP	0.339
RRIRARPPRLPRPRPRPPSFPRP	0.415
RRIRVRPPRLPRPRPRPYNFPRP	-0.577
RRIRNRPPRLPRPRPRPDWGPRP	0.128

Sequence	shrunken log2 fold change
RRIRWRPPRLPRPRPRPRCIPRP	-0.036
RRIRTRPPRLPRPRPRPFNCPRP	-0.038
RRIRVRPPRLPRPRPRPDNNPRP	-0.796
RRIRCRPPRLPRPRPRPTHMPRP	-0.173
RRIRIRPPRLPRPRPRPTPIPRP	0.153
RRIRMRPPRLPRPRPRPGAEPRP	3.05
RRIRIRPPRLPRPRPRPPRVPRP	0.278
RRIRPRPPRLPRPRPRPHFEPRP	0.0605
RRIRVRPPRLPRPRPRPMTLPRP	-0.0218
RRIRPRPPRLPRPRPRPQCQPRP	0.00656
RRIRIRPPRLPRPRPRPFYVPRP	-1.11
RRIRTRPPRLPRPRPRPLFYPRP	-0.467
RRIRPRPPRLPRPRPRPMYWPRP	-0.0489
RRIRARPPRLPRPRPRPGPVPRP	0.611
RRIRMRPPRLPRPRPRPAYSPRP	-0.166
RRIRIRPPRLPRPRPRPFLVPRP	-0.759
RRIRQRPPRLPRPRPRPYDYPRP	-0.133
RRIRNRPPRLPRPRPRPDCIPRP	-0.194
RRIRARPPRLPRPRPRPRNDPRP	0.0481
RRIRMRPPRLPRPRPRPCRFPRP	-0.0352
RRIRARPPRLPRPRPRPCFTPRP	-0.172
RRIRHRPPRLPRPRPRPVLFPRP	-0.0987
RRIRARPPRLPRPRPRPRALPRP	0.482
RRIRERPPRLPRPRPRPATEPRP	-0.155
RRIRCRPPRLPRPRPRPYKSPRP	-1.19

Reference: the supplement of paper PMC9112550, “Optimization of the antimicrobial peptide Bac7 by deep mutational scanning” (BMC Biology, 2022)
